US20050282740A1 (BETH ISRAEL DEACONESS MEDICAL CENTER, published 2005)
Where no end group is shown, it is not given here. Fluorescein = N-terminal fluorescein label

Biological target: T1, GST (UniProt P08515 1-218 = GST)
T1 construct: Control protein; also called control GST
Test: fluorescence anisotropy

T1 sequence (P08515 whole entry): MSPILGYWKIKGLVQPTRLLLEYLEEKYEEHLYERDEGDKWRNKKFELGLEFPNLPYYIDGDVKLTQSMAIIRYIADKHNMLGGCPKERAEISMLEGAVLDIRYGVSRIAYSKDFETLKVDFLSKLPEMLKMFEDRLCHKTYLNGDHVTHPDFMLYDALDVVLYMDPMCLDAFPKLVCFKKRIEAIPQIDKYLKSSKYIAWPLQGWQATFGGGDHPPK

binding result: no binding
B1: EQPLTPVTDL (peptide)
peptide: Fluorescein-EQPLTPVTDL
notes: also called nonphosphorylated Cdc25 Peptide
